# Source: US20250188179A1 (ADAGENE PTE, published 2025)
# B1: TY25366 (antibody, human IgG4 S228P, kappa)
# heavy: EVQLVESGGGLVQPGGSLRLSCAASGFSLSTGGVGVGWIRQAPGKGLEWLALIDWADDKYYSPSLKSRLTISRDNSKNTLYLQLNSLRAEDTAVYYCARGGSDTVIGDWFAYWGQGTLVTVSSASTKGPSVFPLAPCSRSTSESTAALGCLVKDYFPEPVTVSWNSGALTSGVHTFPAVLQSSGLYSLSSVVTVPSSSLGTKTYTCNVDHKPSNTKVDKRVESKYGPPCPPCPAPEFLGGPSVFLFPPKPKDTLMISRTPEVTCVVVDVEQEDPEVQFNWYVDGVEVHNAKTKPREEQFNSTYRVVSVLTVLHQDWLNGKEYKCKVSNKGFPSSIEKTISKAKGQPREPQVYTLPPSQEEMTKNQVSLTCLVKGFYPSDIAVEWESNGQPENNYKTTPPVLDSDGSFFLYSRLTVDKSRWQEGNVFSCSVMHEALHNHYTQKSLSLSLGK
# light: not shown
# notes: also called untreated TY25366
# B2: TY24122 (antibody, human IgG4 S228P, kappa)
# heavy: B1 heavy
# light: not shown
# Columns and labels:
# [1] = target: T1, full-length human CD137 with C-terminal 3xMyc tag displayed on yeast cells (human, UniProt Q07011 24-255); experiment: FACS titration on yeast displaying full-length hCD137-3xMyc, no protease; data batch 4
# T1 construct: whole, on cells; not used; also called hCD137; not shown: C-terminal 3xMyc tag
# [2] = target: T1, full-length human CD137 with C-terminal …; experiment: KD divided by KD of parental antibody (TY21242 or TY23310); FACS on yeast hCD137; data batch 4
# [3] = target: T2, hCD137 (antigen of the ELISA and FACS assays of Example 2) (human, UniProt Q07011 24-186, limits assumed); experiment: ELISA on hCD137, absorbance at 450 nm; masked antibody without MMP9 treatment
# T2 construct: also called human CD137
# [4] = target: T2, hCD137 (antigen of the ELISA and FACS …); experiment: FACS KD relative to parental antibody TY24122
# [5] = target: T2, hCD137 (antigen of the ELISA and FACS …); experiment: FACS-based assay on hCD137
# [6] = target: T2, hCD137 (antigen of the ELISA and FACS …); experiment: ELISA on hCD137
# [7] = target: T3, His-tagged recombinant human FcγRIIa (human, UniProt P12318 36-218, limits assumed); experiment: BLI (Fortebio), His-tagged FcγR captured on anti-Penta-His sensor, antibody in solution, steady state analysis
# T3 construct: His-tagged; also called hFcγRIIa
# T3 sequence (looked up): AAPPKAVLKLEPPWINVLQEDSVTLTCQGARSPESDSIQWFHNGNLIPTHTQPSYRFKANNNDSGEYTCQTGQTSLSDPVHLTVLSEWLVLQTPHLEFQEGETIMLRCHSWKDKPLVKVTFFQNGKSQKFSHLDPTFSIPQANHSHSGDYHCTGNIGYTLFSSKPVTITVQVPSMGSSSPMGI
# [8] = target: T4, His-tagged recombinant human FcγRIIb (human, UniProt P31994 46-217, limits assumed); experiment: as above
# T4 construct: His-tagged; also called hFcγRIIb
# T4 sequence (looked up): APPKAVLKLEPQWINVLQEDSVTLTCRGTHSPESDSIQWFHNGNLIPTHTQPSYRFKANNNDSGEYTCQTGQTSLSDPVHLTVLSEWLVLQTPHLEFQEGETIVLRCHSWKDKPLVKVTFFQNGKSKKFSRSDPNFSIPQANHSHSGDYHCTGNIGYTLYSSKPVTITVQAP
# [9] = target: T2, hCD137 (antigen of the ELISA and FACS …); experiment: ELISA EC50 relative to parental antibody TY24122
binder,measurement,setting,value
B1,Kd,[1],64.6 nM
same,Masking efficiency,[2],324 fold
same,EC50 (read off the curve),[3],~10 nM
B2,Masking efficiency,[4],1 fold
same,Kd,[5],0.141 nM
same,EC50,[6],0.31 nM
same,Kd,[7],5.85 nM
same,Kd,[8],5.06 nM
same,Masking efficiency,[9],1 fold
